How the values were obtained:
[1] = target: CST complex (CTC1-STN1-TEN1) (Homo sapiens, UniProt Q2NKJ3;Q9H668;Q86WV5 1-1217;1-368;1-123); experiment: pull-down; RPA-coated DNA, 50 mM KCl; smFRET: 25 mM Tris-HCl pH 7.5, 0.5 mM EDTA, 10% glycerol, 50 or 150 mM KCl (temperature not stated); pull-down: 35 mM Tris-HCl pH 7.5, 10% glycerol, 0.01% Igepal, 1 mM 2-ME, 1 mM ATP, 2.5 mM MgCl2, 50 or 150 mM KCl, 37 C; EMSA: 35 mM Tris-HCl pH 7.5, 1 mM DTT, 2.5 mM MgCl2, 100 ng/uL BSA, 50 mM KCl, 37 C; conditions: protein: recombinant; tags: FLAG-CTC1, TEN1-His6; copies: 1;1;1; label: 5' biotin, on streptavidin beads
RPA complex = RPA complex (Homo sapiens, UniProt P27694;P15927;P35244 1-616;1-270;1-121); experiment: pull-down; 50 mM KCl; unchanged by CST; smFRET: 25 mM Tris-HCl pH 7.5, 0.5 mM EDTA, 10% glycerol, 50 or 150 mM KCl (temperature not stated); pull-down: 35 mM Tris-HCl pH 7.5, 10% glycerol, 0.01% Igepal, 1 mM 2-ME, 1 mM ATP, 2.5 mM MgCl2, 50 or 150 mM KCl, 37 C; EMSA: 35 mM Tris-HCl pH 7.5, 1 mM DTT, 2.5 mM MgCl2, 100 ng/uL BSA, 50 mM KCl, 37 C; conditions: protein: recombinant; copies: 1;1;1; label: 5' biotin, on streptavidin beads
RAD51 [2] = target: T1, RAD51 (Homo sapiens, UniProt Q06609 1-339); experiment: pull-down; RPA-coated DNA plus CST; smFRET: 25 mM Tris-HCl pH 7.5, 0.5 mM EDTA, 10% glycerol, 50 or 150 mM KCl (temperature not stated); pull-down: 35 mM Tris-HCl pH 7.5, 10% glycerol, 0.01% Igepal, 1 mM 2-ME, 1 mM ATP, 2.5 mM MgCl2, 50 or 150 mM KCl, 37 C; EMSA: 35 mM Tris-HCl pH 7.5, 1 mM DTT, 2.5 mM MgCl2, 100 ng/uL BSA, 50 mM KCl, 37 C; conditions: protein: recombinant; chain copies: 10; label: 5' biotin, on streptavidin beads
RAD51 [3] = target: T1, RAD51; experiment: negative-stain EM; 150 mM KCl; naked DNA, median filament 96.41 nm; smFRET: 25 mM Tris-HCl pH 7.5, 0.5 mM EDTA, 10% glycerol, 50 or 150 mM KCl (temperature not stated); pull-down: 35 mM Tris-HCl pH 7.5, 10% glycerol, 0.01% Igepal, 1 mM 2-ME, 1 mM ATP, 2.5 mM MgCl2, 50 or 150 mM KCl, 37 C; EMSA: 35 mM Tris-HCl pH 7.5, 1 mM DTT, 2.5 mM MgCl2, 100 ng/uL BSA, 50 mM KCl, 37 C; conditions: protein: recombinant; chain copies: 10
EGFP-RPA = EGFP-RPA (Homo sapiens, UniProt P27694;P15927;P35244 1-616;1-270;1-121); experiment: CoSMoS; 50 mM KCl, 10 nM; ~85% of DNA foci RPA-bound; 1-4 RPA per DNA; smFRET: 25 mM Tris-HCl pH 7.5, 0.5 mM EDTA, 10% glycerol, 50 or 150 mM KCl (temperature not stated); pull-down: 35 mM Tris-HCl pH 7.5, 10% glycerol, 0.01% Igepal, 1 mM 2-ME, 1 mM ATP, 2.5 mM MgCl2, 50 or 150 mM KCl, 37 C; EMSA: 35 mM Tris-HCl pH 7.5, 1 mM DTT, 2.5 mM MgCl2, 100 ng/uL BSA, 50 mM KCl, 37 C; conditions: protein: recombinant; tags: EGFP; copies: 1;1;1; label: 5' Cy3 and 3' biotin on Oligo 10; 3' overhang 80 nt
SNAP649-CST = SNAP649-CST (Homo sapiens, UniProt Q2NKJ3;Q9H668;Q86WV5 1-1217;1-368;1-123); experiment: CoSMoS; EGFP-RPA-coated DNA, 50 mM KCl, 13.5 nM; smFRET: 25 mM Tris-HCl pH 7.5, 0.5 mM EDTA, 10% glycerol, 50 or 150 mM KCl (temperature not stated); pull-down: 35 mM Tris-HCl pH 7.5, 10% glycerol, 0.01% Igepal, 1 mM 2-ME, 1 mM ATP, 2.5 mM MgCl2, 50 or 150 mM KCl, 37 C; EMSA: 35 mM Tris-HCl pH 7.5, 1 mM DTT, 2.5 mM MgCl2, 100 ng/uL BSA, 50 mM KCl, 37 C; conditions: protein: recombinant; tags: SNAP (SNAP-Surface 649 label); copies: 1;1;1; label: 5' Cy3 and 3' biotin on Oligo 10; 3' overhang 80 nt
Chain of SNAP649-CST (Q2NKJ3 whole entry, chain 1 of 3): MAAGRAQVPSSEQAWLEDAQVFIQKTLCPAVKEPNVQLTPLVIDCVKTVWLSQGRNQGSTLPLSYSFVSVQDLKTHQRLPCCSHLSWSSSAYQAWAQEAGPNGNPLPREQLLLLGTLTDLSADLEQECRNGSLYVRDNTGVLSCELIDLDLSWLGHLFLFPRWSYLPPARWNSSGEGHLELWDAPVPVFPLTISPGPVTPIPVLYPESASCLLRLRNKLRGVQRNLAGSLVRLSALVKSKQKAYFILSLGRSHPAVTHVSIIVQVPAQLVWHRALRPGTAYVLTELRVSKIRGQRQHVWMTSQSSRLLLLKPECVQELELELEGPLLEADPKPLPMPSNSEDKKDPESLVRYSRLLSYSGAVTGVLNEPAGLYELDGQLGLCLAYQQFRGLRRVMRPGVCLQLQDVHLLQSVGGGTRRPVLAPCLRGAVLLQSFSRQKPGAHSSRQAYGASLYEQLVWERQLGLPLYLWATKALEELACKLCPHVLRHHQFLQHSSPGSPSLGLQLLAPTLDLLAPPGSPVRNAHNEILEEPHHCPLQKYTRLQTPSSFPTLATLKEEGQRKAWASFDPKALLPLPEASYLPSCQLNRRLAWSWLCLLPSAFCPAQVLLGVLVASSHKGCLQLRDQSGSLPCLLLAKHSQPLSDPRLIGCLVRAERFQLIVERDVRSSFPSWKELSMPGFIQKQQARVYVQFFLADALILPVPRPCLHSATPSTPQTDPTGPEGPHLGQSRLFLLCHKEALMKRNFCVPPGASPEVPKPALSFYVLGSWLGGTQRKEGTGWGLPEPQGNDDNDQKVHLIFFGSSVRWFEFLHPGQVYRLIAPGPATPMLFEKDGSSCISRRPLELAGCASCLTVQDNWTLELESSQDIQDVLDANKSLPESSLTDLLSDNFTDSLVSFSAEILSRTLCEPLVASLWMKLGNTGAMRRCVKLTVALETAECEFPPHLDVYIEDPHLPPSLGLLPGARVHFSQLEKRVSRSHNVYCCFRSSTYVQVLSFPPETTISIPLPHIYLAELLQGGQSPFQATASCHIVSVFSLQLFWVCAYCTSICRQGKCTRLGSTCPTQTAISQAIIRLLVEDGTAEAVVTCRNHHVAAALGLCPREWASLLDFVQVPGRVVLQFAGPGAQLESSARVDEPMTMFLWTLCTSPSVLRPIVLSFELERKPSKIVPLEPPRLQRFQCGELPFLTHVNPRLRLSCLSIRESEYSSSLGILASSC
Chain of SNAP649-CST (Q9H668 whole entry, chain 2 of 3): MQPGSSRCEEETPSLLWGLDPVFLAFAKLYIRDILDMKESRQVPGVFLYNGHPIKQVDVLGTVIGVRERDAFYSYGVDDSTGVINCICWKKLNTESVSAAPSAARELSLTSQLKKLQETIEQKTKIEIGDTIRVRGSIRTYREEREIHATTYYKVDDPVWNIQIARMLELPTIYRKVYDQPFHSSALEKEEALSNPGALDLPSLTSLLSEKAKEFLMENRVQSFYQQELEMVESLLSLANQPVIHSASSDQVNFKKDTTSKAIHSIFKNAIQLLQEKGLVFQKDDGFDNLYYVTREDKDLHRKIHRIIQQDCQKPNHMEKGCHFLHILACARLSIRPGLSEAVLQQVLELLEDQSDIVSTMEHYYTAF
Chain of SNAP649-CST (Q86WV5 whole entry, chain 3 of 3): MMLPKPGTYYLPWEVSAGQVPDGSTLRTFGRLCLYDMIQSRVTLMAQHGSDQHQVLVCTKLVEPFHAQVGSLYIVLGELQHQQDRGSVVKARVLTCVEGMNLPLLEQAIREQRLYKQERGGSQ

T1 sequence (Q06609 whole entry): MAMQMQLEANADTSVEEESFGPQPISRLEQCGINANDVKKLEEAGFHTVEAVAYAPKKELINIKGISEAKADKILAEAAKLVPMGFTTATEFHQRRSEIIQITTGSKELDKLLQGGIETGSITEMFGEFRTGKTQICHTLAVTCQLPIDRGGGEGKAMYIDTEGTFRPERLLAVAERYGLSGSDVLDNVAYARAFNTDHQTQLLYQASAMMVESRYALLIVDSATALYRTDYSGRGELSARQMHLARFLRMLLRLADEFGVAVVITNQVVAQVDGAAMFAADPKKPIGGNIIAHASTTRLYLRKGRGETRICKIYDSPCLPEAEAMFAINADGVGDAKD
Chain of CST complex (CTC1-STN1-TEN1) (Q2NKJ3 whole entry, chain 1 of 3): as the sequence (Q2NKJ3 whole entry, chain 1 of 3) above
Chain of CST complex (CTC1-STN1-TEN1) (Q9H668 whole entry, chain 2 of 3): as the sequence (Q9H668 whole entry, chain 2 of 3) above
Chain of CST complex (CTC1-STN1-TEN1) (Q86WV5 whole entry, chain 3 of 3): as the sequence (Q86WV5 whole entry, chain 3 of 3) above
Chain of RPA complex (P27694 whole entry, chain 1 of 3): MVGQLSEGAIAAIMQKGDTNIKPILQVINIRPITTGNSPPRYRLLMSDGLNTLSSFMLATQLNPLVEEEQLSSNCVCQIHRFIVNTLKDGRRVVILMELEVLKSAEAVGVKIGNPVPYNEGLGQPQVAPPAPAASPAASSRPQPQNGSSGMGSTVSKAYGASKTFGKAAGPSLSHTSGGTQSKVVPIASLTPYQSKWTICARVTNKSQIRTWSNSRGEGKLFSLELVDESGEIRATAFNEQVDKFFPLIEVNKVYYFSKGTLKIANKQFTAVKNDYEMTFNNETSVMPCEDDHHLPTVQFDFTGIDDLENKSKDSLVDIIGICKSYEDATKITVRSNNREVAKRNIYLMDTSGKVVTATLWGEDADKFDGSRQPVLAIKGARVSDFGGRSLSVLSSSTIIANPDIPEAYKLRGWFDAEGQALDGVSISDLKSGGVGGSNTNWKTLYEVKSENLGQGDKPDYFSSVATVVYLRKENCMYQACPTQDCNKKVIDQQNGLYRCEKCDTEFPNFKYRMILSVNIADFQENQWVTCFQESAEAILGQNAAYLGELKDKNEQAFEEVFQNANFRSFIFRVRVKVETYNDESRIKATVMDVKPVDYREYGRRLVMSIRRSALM
Chain of RPA complex (P15927 whole entry, chain 2 of 3): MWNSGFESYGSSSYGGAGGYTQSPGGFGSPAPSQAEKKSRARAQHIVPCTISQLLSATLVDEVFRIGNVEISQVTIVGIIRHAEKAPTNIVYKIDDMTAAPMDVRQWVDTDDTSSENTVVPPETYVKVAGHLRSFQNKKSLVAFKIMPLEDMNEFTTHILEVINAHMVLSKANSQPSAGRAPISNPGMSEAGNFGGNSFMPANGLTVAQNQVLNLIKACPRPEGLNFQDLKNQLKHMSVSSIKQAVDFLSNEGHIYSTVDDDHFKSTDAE
Chain of RPA complex (P35244 whole entry, chain 3 of 3): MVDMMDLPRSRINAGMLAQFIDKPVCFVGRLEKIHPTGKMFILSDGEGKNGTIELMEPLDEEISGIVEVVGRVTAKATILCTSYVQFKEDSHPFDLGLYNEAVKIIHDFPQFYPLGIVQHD
Chain of EGFP-RPA (P27694 whole entry, chain 1 of 3): as the sequence (P27694 whole entry, chain 1 of 3) above
Chain of EGFP-RPA (P15927 whole entry, chain 2 of 3): as the sequence (P15927 whole entry, chain 2 of 3) above
Chain of EGFP-RPA (P35244 whole entry, chain 3 of 3): as the sequence (P35244 whole entry, chain 3 of 3) above

B1: 80-nt ssDNA, biotinylated Oligo 1 (ssDNA)
DNA: TTATGTTCATTTTTTATATCCTTTACTTTATTTTCTCTGTTTATTCATTTACTTATTTTGTATTATCCTTATCTTATTTA
Question: Does B1 bind [1]?
Answer: binds

Question: Does B1 bind (RPA complex)?
Answer: binds

Question: Does B1 bind (RAD51 [2])?
Answer: binds

B2: 80-nt ssDNA Oligo 1 (ssDNA)
DNA: TTATGTTCATTTTTTATATCCTTTACTTTATTTTCTCTGTTTATTCATTTACTTATTTTGTATTATCCTTATCTTATTTA
Question: Does B2 bind (RAD51 [3])?
Answer: binds

B3: 80-nt ssDNA overhang (Oligo 9+10) (mixed)
DNA 1: TGGCGACGGCAGCGAGGCTTATGTTCATTTTTTATATCCTTTACTTTATTTTCTCTGTTTATTCATTTACTTATTTTGTATTATCCTTATCTTATTTA
DNA 2: GCCTCGCTGCCGTCGCCA
Question: Which results are given for B3?
Answer: binding result (EGFP-RPA): binds; binding result (SNAP649-CST): binds

Source: PMC8571288
